Biological target: T1, 人PRLR胞外结构域 (Sino Biological) (human, UniProt P16471 25-234)
T1 construct: Bought recombinant protein (Sino Biological); also called PRLR胞外区; PRLR ECD
T1 sequence (looked up): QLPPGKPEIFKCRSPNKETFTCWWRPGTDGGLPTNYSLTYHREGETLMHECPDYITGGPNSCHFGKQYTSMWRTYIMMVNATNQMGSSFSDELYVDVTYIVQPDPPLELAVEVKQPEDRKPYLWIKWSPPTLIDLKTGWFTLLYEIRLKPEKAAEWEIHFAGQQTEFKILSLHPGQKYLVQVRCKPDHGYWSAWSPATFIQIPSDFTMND
Assay: SPR, Biacore T200, antigen amine-coupled to CM5 chip

B1: PRLR-DbsAb (CD3×PRLR双特异性抗体) (bispecific antibody, human IgG1, kappa)
heavy 1: not shown
light 1: DIQMTQSPSSLSASVGDRVTITCSASSSVSYMNWYQQTPGKAPKRWIYDTSKLASGVPSRFSGSGSGTDYTFTISSLQPEDIATYYCQQWSSNPFTFGQGTKLQITRTVAAPSVFIFPPSDEQLKSGTASVVCLLNNFYPREAKVQWKVDNALQSGNSQESVTEQDSKDSTYSLSSTLTLSKADYEKHKVYACEVTHQGLSSPVTKSFNRGEC
heavy 2: not shown
light 2: not shown
notes: also called PRLR-DsbAb; CD3和PRLR双特异性抗体
- Kd: 2.31 nM
- koff: 0.000679 s⁻¹
- kon: 294000 M⁻¹ s⁻¹

Reference: patent publication CN109627340A (UNIV SHANGHAI JIAOTONG; JECHO LABORATORIES INC, dated 2019)
